Experiments:
[1] = Recoverability of fluorescence-generating ability after heating at 90° C.; type: physicochemical; details: heated at 90° C. for 3 min
Procedure: The thermal stability of bFP-aq prepared in Examples 2 was compared with that of gFP-aq prepared Example 3. The solution containing bFP-aq or gFP-aq with a protein concentration of 0.26 mg/ml was heated at 90° C. for 3 min and allowed to stand at 24° C. Subsequently, each fluorescence generation intensity was measured with a spectrofluorometer.

[2] = when calcium ions bind; cited from earlier work
[3] = Substrate specificity, chemiluminescence with h-CTZ; type: biochemical; details: compared with coelenterazine
Procedure: bFP-aq, e-bFP-aq, and h-bFP-aq (0.25 μg) prepared in Example 2 were individually dissolved in 100 μl of 50 mM Tris-HCl (pH 7.6) containing 5 mM dithiothreitol (DTT) and 1 μg/μl coelenterazine and its analog were added to each solution. Each chemiluminescence in the steady reaction state (after 10 min) was measured with a luminometer (AB-2200; manufactured by Atto Co., Ltd.).

aequorin
Ability to emit light due to the addition of calcium ions after heat treatment [1]: completely been lost
maximum wave length of blue light emission [2]: 465-470 nm

O=c1c(Cc2ccccc2)nc2c(Cc3ccccc3)[nH]c(-c3ccc(O)cc3)cn1-2 [h-coelenterazine]
Quality as luminescent substrate of the bFPs [3]: serves as a luminescent substrate better than coelenterazine
